The source of these data is patent US7592307B2, “Releasable linkage and compositions containing same” (Alza Corporation, priority 1999, dated 2009).

The nature of series [1]: Blood lysozyme concentration after intravenous or subcutaneous administration. Format: in vivo. The settings on record: rats. As to the method:
The mPEG12000-MeDTB-lysozyme conjugates were administered in vivo to rats to characterize the in vivo behavior of the conjugate and its ability to cleave under physiologic conditions. In a first study, nine rats were divided into three test groups for administration of PEG-lysozyme, PEG-MeDTB-lysozyme, or free lysozyme. The test compound was administered intravenously or subcutaneously and blood samples were taken at defined times for analysis of blood lysozyme concentration.

A further series concerns bacterial cell wall. Put plainly: Bacterial cell wall lysis turbidometric assay of enzyme activity. Format: biochemical. To be noted: after treatment with 1 mM cysteine.
The target of another series is bovine serum albumin (Bos taurus, UniProt P02769). Put plainly: Cleavage of mPEG-DTB-lysozyme by albumin (SDS-PAGE stained for PEG). To be noted: treated with bovine serum albumin. The format is physicochemical. From the text: In another set of studies, it was shown that the thiol group of albumin was acting as the cleaving agent. Albumin is an abundant protein-thiol in plasma (Kratz, F. et al. J. Med. Chem., 45:5523 (2002)). The SDS-PAGE gel from this study is shown in FIG. 16B, where Lanes 1-12 were as follows:
The gel was stained for visibility of PEG. […] Lane 10 corresponds to mPEG-DTB-lysozyme treated with albumin and no spot on the gel corresponding to the mPEG-DTB-lysozyme conjugate is visible (compare to Lane 11), nor is a spot corresponding to released PEG visible (compare to Lane 4).

The nature of series [2]: Cleavage of mPEG-MeDTB-lysozyme in plasma (SDS-PAGE stained for PEG). The format is in vitro ADME. To be noted: plasma for 18 hours. As to the method: The samples were stained with iodine, for PEG visualization. Lane 1 corresponds to mPEG5000-MeDTB-lysozyme, Lane 2 corresponds to mPEG5000-MeDTB-lysozyme in cysteine buffer, Lane 3 corresponds to mPEG5000-MeDTB-lysozyme in plasma for 18 hours, Lane 4 corresponds to mPEG5000-MeDTB-lysozyme with 1,4-dithio-DL-threitol (DTT) added, Lane 5 is a plasma sample control, and Lane 6 is PEG molecular weight markers. […] Free PEG is liberated after treatment with low molecular weight thiol, such as DTT.

Series [3] can be described thus: Thiolytic cleavage of PEG-lysozyme conjugates (SDS-PAGE, RP-HPLC). Format: physicochemical. To be noted: for cleavage under reducing SDS-PAGE conditions: 2% β-mercaptoethanol, 10 minutes at 70° C. The method, then:
In a study performed in support of the invention, lysozyme was used as a model polypeptide. As described in Example 8, lysozyme was incubated with mPEG-MeDTB-nitrophenylcarbonate in 0.1 M borate, at pH 9, at a 2:1 ratio of nitrophenylcarbonate to amino group of lysozyme. After reactions times of 15 minutes and 3 hours, separate samples were characterized by SDS-PAGE. A comparative conjugate was prepared by reacting lysozyme under the same conditions for 60 minutes with mPEG-nitrophenyl carbonate, which will form a stable mPEG-lysozyme conjugate.
Lanes 6-9 of the gel correspond to the samples in Lanes 1-4, but under reducing SDS-PAGE conditions, after treatment with 2% β-mercaptoethanol for 10 minutes at 70° C. […] In contrast, the stable mPEG-lysozyme conjugate was not affected upon incubation with a reducing agent, as evidenced by the agreement in the profile in Lane 9 and Lane 4.
A similar study was done using cysteine as a reducing agent on a purified mPEG5000-MeDTB-lysozyme conjugate. The results of the SDS-PAGE profile are shown in FIG. 12B, where an mPEG-MeDTB-lysozyme conjugate (Lane 1) treated with 1 mM cysteine (Lane 2), 5 mM cysteine (Lane 3), and 50 mM cysteine (Lane 4) are shown. Also shown are an mPEG-lysozyme conjugate (no cleavable linkage) before (Lane 5) and after treatment (Lane 6) with 50 mM cysteine. Lysozyme before (Lane 7) and after (Lane 8) with 50 mM cysteine are also shown. Lane 9 corresponds to protein markers.
Example 8 describes the methodology of the reverse-phase HPLC analysis. The trace at the bottom of FIG. 13A corresponds to neat lysozyme.
Reverse-phase HPLC analysis. RP-HPLC separation of PEG-lysozyme conjugates was achieved on a Vydac™ Protein C4 (4.6×150 mm) column eluted at 1 ml/min with aqueous acetonitrile gradient as follows. Each chromatography run started with a mobile phase A (30% acetonitrile, 5% 0.1 M sodium acetate pH 5, and 65% H2O), and over a period of 40 min ended with a mobile phase B (50% acetonitrile, 50% 0.1 M sodium acetate pH 5). UV detector set at 280 nm was used to monitor the chromatography. SDS-PAGE. Polyacrylamide gel electrophoresis under denaturing conditions was performed for conjugates characterization. Pre-cast NuPAGE® Bis-Tris gels (4-15%), NuPAGE®MES running buffer, molecular weight protein standards (Mark 12™), and Colloidal Coomassie® G-250 staining kit, were all obtained from Invitrogen, Carlsbad, Calif. […] Aliquots were taken out from the reaction vial at various time points and analyzed by RP-HPLC as described above (see FIG. 13A). […] Purified PEG-DTB-lysozyme containing only one PEG moiety per lysozyme was treated with 1 mM cysteine while the reaction was monitored by LC-MS. […]

Chain of bovine serum albumin (P02769 25-607): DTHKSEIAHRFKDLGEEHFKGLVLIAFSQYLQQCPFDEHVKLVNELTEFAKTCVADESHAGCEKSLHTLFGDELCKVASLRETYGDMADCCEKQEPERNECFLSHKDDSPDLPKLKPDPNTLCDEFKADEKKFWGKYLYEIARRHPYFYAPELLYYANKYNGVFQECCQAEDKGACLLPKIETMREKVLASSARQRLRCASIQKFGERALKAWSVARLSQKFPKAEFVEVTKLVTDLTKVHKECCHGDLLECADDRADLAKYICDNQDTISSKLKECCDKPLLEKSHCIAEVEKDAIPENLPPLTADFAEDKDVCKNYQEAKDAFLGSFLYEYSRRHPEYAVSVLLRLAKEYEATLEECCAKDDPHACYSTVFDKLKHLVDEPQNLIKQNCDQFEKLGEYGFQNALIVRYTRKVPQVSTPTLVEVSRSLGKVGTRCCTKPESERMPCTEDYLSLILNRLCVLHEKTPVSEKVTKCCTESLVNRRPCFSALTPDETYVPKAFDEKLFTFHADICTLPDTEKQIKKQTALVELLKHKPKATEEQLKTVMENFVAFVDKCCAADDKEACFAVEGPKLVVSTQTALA

Regarding PEG12000-MeDTB-lysozyme, in series [1] (intravenous), the T1/2α was determined as 3.71 h and the T1/2β was 37.2 h. The “bioavailability (AUC)” value in series [1] (subcutaneous) is reported as “best bioavailability”.

Consider PEG12000-lysozyme [reference compound], for which, in series [1] (intravenous), the T1/2α was 2.17 h and the T1/2β came out at 32.9 h.

In series [1] (intravenous), lysozyme: model polypeptide gave a T1/2α of 0.25 h and a T1/2β of 24.1 h. In addition, the blood concentration decrease result in series [1] (intravenous, within one hour after administration) is given as “more than 10 fold”.

As to mPEG5000-MeDTB-lysozyme, the “cell-lysing (enzymatic) activity after thiolysis” value with bacterial cell wall is “nearly all”; in the series on bacterial cell wall (listed as mPEG-DTB-Lysozyme) it was “Recovery of enzymatic activity”. The cleavage by albumin result with bovine serum albumin was “cleaved by the albumin”. In series [2], the cleavage in plasma entry was “cleaved in plasma”. For the same substance, the “cleavage and release of lysozyme (RP-HPLC)” value in series [3] (1 mM cysteine, 30 minute time point) is “near completion”. Besides, the “cleavage under reducing SDS-PAGE conditions” value in series [3] is on record as “decomposed to regenerate native lysozyme”. In series [3] (treated with cysteine), the “cleavage by cysteine (SDS-PAGE stained for PEG)” value is reported as “cleaved in the presence of cysteine”.

Consider mPEG-lysozyme [reference compound], for which the “cell-lysing (enzymatic) activity after thiolysis” value in the series on bacterial cell wall was “remained inactive”. Also, in series [3], the “cleavage under reducing SDS-PAGE conditions” value is recorded as “not affected”.
